Reference: IntAct's records for PubMed 24843023

B1: Bone marrow stromal antigen 2 (Homo sapiens), Q10589 (parent)
chain: MASTSYDYCRVPMEDGDKRCKLLLGIGILVLLIIVILGVPLIIFTIKANSEACRDGLRAVMECRNVTHLLQQELTEAQKGFQDVEAQAATCNHTVMALMASLDAEKAQGQKKVEELEGEITTLNHKLQDASAEVERLRRENQVLSVRIADKKYYPSSQDSSSAAAPQLLIVLLGLSALLQ
partner: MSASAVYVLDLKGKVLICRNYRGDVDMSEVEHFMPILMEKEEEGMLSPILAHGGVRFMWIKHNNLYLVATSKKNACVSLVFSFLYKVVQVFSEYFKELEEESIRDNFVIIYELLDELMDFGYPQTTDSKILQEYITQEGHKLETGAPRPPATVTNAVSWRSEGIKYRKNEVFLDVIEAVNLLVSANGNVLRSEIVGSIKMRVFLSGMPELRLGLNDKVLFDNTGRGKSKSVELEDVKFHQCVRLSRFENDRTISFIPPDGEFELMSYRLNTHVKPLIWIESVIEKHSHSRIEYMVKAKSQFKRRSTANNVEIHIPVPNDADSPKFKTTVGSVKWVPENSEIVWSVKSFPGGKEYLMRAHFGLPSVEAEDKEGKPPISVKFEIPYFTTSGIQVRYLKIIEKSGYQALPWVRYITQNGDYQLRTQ
B2: AP-1 complex subunit mu-1 (Mus musculus), P35585 (parent)
chain: B1 partner
B3: Protein Vpu (Human immunodeficiency virus type 1 group M subtype B (isolate SF162)), P19554 (parent)
chain: MQPLQILAIVALVVAAIIAIVVWTIVYIEYRKILRQRKIDRLIDRITERAEDSGNESEGDQEELSALVERGHLAPWDVDDL

Variants of: B1
Settings: with ap1m1_mouse Ap1m1, P35585

Variant	effect of a mutation on the interaction
MASTSYDYCRAPMEDGDKRCKLLLGIGILVLLIIVILGVPLIIFTIKANSEACRDGLRAVMECRNVTHLLQQELTEAQKGFQDVEAQAATCNHTVMALMASLDAEKAQGQKKVEELEGEITTLNHKLQDASAEVERLRRENQVLSVRIADKKYYPSSQDSSSAAAPQLLIVLLGLSALLQ	disrupting interaction
MASTSADYCRVPMEDGDKRCKLLLGIGILVLLIIVILGVPLIIFTIKANSEACRDGLRAVMECRNVTHLLQQELTEAQKGFQDVEAQAATCNHTVMALMASLDAEKAQGQKKVEELEGEITTLNHKLQDASAEVERLRRENQVLSVRIADKKYYPSSQDSSSAAAPQLLIVLLGLSALLQ	disrupting interaction
MASTSYDACRVPMEDGDKRCKLLLGIGILVLLIIVILGVPLIIFTIKANSEACRDGLRAVMECRNVTHLLQQELTEAQKGFQDVEAQAATCNHTVMALMASLDAEKAQGQKKVEELEGEITTLNHKLQDASAEVERLRRENQVLSVRIADKKYYPSSQDSSSAAAPQLLIVLLGLSALLQ	disrupting interaction
MASTSADACRVPMEDGDKRCKLLLGIGILVLLIIVILGVPLIIFTIKANSEACRDGLRAVMECRNVTHLLQQELTEAQKGFQDVEAQAATCNHTVMALMASLDAEKAQGQKKVEELEGEITTLNHKLQDASAEVERLRRENQVLSVRIADKKYYPSSQDSSSAAAPQLLIVLLGLSALLQ	disrupting interaction

Variants of: B2
Settings: with bst2_human BST2, Q10589

Variant	effect of a mutation on the interaction
MSASAVYVLDLKGKVLICRNYRGDVDMSEVEHFMPILMEKEEEGMLSPILAHGGVRFMWIKHNNLYLVATSKKNACVSLVFSFLYKVVQVFSEYFKELEEESIRDNFVIIYELLDELMDFGYPQTTDSKILQEYITQEGHKLETGAPRPPATVTNAVSWRSEGIKYRKNEVFLAVIEAVNLLVSANGNVLRSEIVGSIKMRVFLSGMPELRLGLNDKVLFDNTGRGKSKSVELEDVKFHQCVRLSRFENDRTISFIPPDGEFELMSYRLNTHVKPLIWIESVIEKHSHSRIEYMVKAKSQFKRRSTANNVEIHIPVPNDADSPKFKTTVGSVKWVPENSEIVWSVKSFPGGKEYLMRAHFGLPSVEAEDKEGKPPISVKFEIPYFTTSGIQVRYLKIIEKSGYQALPWVRYITQNGDYQLRTQ [D174A]	disrupting interaction

Variants of: B2
Settings: with tgon3_rat Ttgn1, P19814
Sequence of tgon3_rat Ttgn1, P19814 (P19814 whole entry): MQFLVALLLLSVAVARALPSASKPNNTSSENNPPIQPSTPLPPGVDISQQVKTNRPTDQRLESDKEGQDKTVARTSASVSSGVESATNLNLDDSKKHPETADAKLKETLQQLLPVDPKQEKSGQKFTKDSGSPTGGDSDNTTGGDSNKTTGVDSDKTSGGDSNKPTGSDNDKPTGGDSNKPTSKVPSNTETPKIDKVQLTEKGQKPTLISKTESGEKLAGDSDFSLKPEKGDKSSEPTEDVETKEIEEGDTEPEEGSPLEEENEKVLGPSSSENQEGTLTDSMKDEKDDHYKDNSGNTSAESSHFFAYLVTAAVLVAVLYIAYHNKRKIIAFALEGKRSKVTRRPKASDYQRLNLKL

Variant	effect of a mutation on the interaction
MSASAVYVLDLKGKVLICRNYRGDVDMSEVEHFMPILMEKEEEGMLSPILAHGGVRFMWIKHNNLYLVATSKKNACVSLVFSFLYKVVQVFSEYFKELEEESIRDNFVIIYELLDELMDFGYPQTTDSKILQEYITQEGHKLETGAPRPPATVTNAVSWRSEGIKYRKNEVFLAVIEAVNLLVSANGNVLRSEIVGSIKMRVFLSGMPELRLGLNDKVLFDNTGRGKSKSVELEDVKFHQCVRLSRFENDRTISFIPPDGEFELMSYRLNTHVKPLIWIESVIEKHSHSRIEYMVKAKSQFKRRSTANNVEIHIPVPNDADSPKFKTTVGSVKWVPENSEIVWSVKSFPGGKEYLMRAHFGLPSVEAEDKEGKPPISVKFEIPYFTTSGIQVRYLKIIEKSGYQALPWVRYITQNGDYQLRTQ [D174A]	disrupting interaction

Variants of: B3
Settings: with fbw1a_human BTRC

Variant	effect of a mutation on the interaction
S53N;S57N	decreasing interaction
